Assay results published in article doi:10.1101/2023.07.25.550441.

Experiments:
Test in all cases: SPR
[1] = molecular target: Asgard UEV (the UEV of UEV-Vps23 and UEV-Vps28), as tested against Asgard ubiquitin
[2] = molecular target: Helarchaeia full-length RING E3 (Helarchaeota)
[3] = molecular target: Helarchaeia RING E3 (N-loopΔ), truncated E3 that lacks the N-loop (residues 1-19) (Helarchaeota)

“Asgard ubiquitin, as tested against Asgard UEV” showed a Kd [1] of 0.674 to 7.15 µM.

“Helarchaeia UEV (residues 1-132) of UEV-Vps23 (domain or fragment)” showed a Kd [2] of 257 µM and a Kd [3] of 8140 µM.
